Results: publication PMC11602133

Molecular target: T1, … 3 (SEP3), in vitro produced (Arabidopsis), O22456
T1 chain: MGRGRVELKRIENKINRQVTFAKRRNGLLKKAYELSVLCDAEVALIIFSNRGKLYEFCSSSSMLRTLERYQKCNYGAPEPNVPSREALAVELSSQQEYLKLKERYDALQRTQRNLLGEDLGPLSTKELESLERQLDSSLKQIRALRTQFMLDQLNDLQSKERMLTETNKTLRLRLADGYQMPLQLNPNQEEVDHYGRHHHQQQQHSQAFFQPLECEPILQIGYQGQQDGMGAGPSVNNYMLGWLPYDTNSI
Test: native gel or EMSA; in vitro produced proteins (wheat germ TnT) mixed with a DY-682 labelled ~100 bp DNA probe containing a CArG-box (SAUR10 probe); protein complexes read from the shifted bands on DNA; anti-FLAG antibody added for supershift where FUL-FLAG was used
Conditions: remark: other sources report otherwise

stoichiometry N: 2
B1: … 3 (SEP3), in vitro produced, O22456 1-251 (natural protein)
chain: MGRGRVELKRIENKINRQVTFAKRRNGLLKKAYELSVLCDAEVALIIFSNRGKLYEFCSSSSMLRTLERYQKCNYGAPEPNVPSREALAVELSSQQEYLKLKERYDALQRTQRNLLGEDLGPLSTKELESLERQLDSSLKQIRALRTQFMLDQLNDLQSKERMLTETNKTLRLRLADGYQMPLQLNPNQEEVDHYGRHHHQQQQHSQAFFQPLECEPILQIGYQGQQDGMGAGPSVNNYMLGWLPYDTNSI
